The target in test [1] is dynein heavy chain (DYNC1H1) (human) (UniProt Q14204). Briefly: SEC-MALS; purified recombinant dynein complex; single peak of approximately 1.40 MDa against 1.42 MDa expected for a dimeric complex of all six chains. In general terms: SEC sorts molecules by how far they enter the pores of the column.
Test [2] addresses recombinant human cytoplasmic dynein 1 complex (human) (UniProt Q14204).
For test [3] the target is unchanged. Briefly: single-molecule two-colour co-localisation (TIRF microscopy); roughly equimolar TMR–dynein and Alexa647–dynein mixed, puncta on microtubules scored for both dyes in kymographs, 2.5 mM ATP; done without and with dynactin and BICD2N.

This passage reports stoichiometry N, proportion of TMR–dynein complexes with unidirectional minus end-directed movement on microtubules, with dynactin and BICD2N and percent of dynein puncta that contained both dyes results from article PMC4158905.

One may read the stoichiometry N as a count of units in the complex or per binding partner.

Consider “dynein heavy chain (DYNC1H1), Q14204 1-4646”, for which, in test [1], the stoichiometry N came out at 2.
For the substance “native dynactin complex from pig brains (from UniProt A0A287B8J2 1-1281; A0A5G2QD80 1-405)”, the proportion of TMR–dynein complexes with unidirectional minus end-directed movement on microtubules, with dynactin and BICD2N at 20 BICD2N dimers: 1 dynein complex: 2 dynactin complexes in test [2] was 23%.
For “recombinant human cytoplasmic dynein 1 complex (from UniProt Q14204 1-4646; O43237-1 1-492; P63172 1-113; Q9NP97-1 1-96; P63167 1-89)”, in test [3], the percent of dynein puncta that contained both dyes came to 6%.
